Measurements published in patent US20250223366A1, “MONOCLONAL ANTIBODIES AND BISPECIFIC ANTIBODY AGAINST C-MET” (BIOTHEUS INC., priority 2022, published 2025).

What was measured:
[1] = tested on: A375/H1975/HCC827 cells; test: ADCC induction, CD16a-NFAT-Luc Jurkat reporter gene cells; format: cell-based, human; details: A375, H1975, HCC827 target cells, CD16a-NFAT-Luc Jurkat effector cells, 6 h, FIG. 9
Source text: A375 cells were human malignant melanoma cells and purchased from Addexbio, which were capable of expressing EGFR and c-Met receptors. H1975 cells were human lung adenocarcinoma cells and purchased from Addexbio, which were capable of highly expressing EGFR and c-Met receptors. HCC827 cells were human non-small cell lung cancer cells and purchased from the Cell Bank of the Chinese Academy of Sciences, which were capable of highly expressing EGFR and c-Met receptors. […]

[2] = tested on: H292 human lung cancer tumor cells; test: Experimental Model 1: H292 tumor-bearing model; format: in vivo, CB-17 SCID mice; details: H292, Day 7: 10 mg/kg; Day 21: 2 mg/kg; last measured 29 days after inoculation
Protocol: In this experiment, CB-17 SCID mice were subcutaneously inoculated with H292 human lung cancer tumor cells to establish a tumor-bearing model and determine the anti-tumor effect of the anti-EGFRxc-Met bispecific antibody. Sufficient H292 cells were cultured and expanded in vitro, and the cells were collected after trypsin digestion. After washing with PBS for 3 times, the cells were counted and inoculated subcutaneously at the right abdomen of female 8-week-old CB-17 SCID mice (purchased from Beijing Weitong Lihua) at an amount of 3×10^6 cells/mouse. The subcutaneous tumor formation of tumor cells in the mice was observed daily, and the maximum width axis W and the maximum length axis L of the subcutaneous tumor on the right abdomen of each animal were measured with a vernier caliper, and the weight of each mouse was weighed with an electronic balance. The subcutaneous tumor volume on the right abdomen of each mouse was calculated according to the following formula: tumor volume T=1/2×W×W×L. The mice with too large and too small tumor volumes were eliminated, and the remained mice were divided into 4 groups according to the average tumor volume, with 6 mice in each group. […]
The tumor volume and weight of mice were measured 2 to 3 times a week. The weight and tumor volume of mice were measured for the last time 29 days after the tumor cell inoculation, and then the mice were euthanized.

[3] = tested on: HGF-c-MET signaling pathway; test: Blocking of HGF-c-MET signaling pathway in Gefitinib-treated HCC827 cells (single antibody concentration); format: cell-based, human; details: 3 days, Cell titer glo, FIG. 2
Protocol: HCC827 cells were human non-small cell lung cancer cells (purchased from the Cell Bank of the Chinese Academy of Sciences), which highly express epidermal growth factor receptor EGFR (exon 19 deletion) and c-Met receptor. The treatment with small molecule tyrosine kinase inhibitor (TKI) Gefitinib (gefitinib, an epidermal growth factor receptor tyrosine kinase inhibitor) would induce apoptosis in HCC827 cells. If HGF was added at the same time under such conditions, the c-Met pathway would be activated to induce HCC827 to produce resistance to Gefitinib, thereby inhibiting apoptosis.
The cell density of the HCC827 cells after the expanded culture was adjusted to 2×10^4 cells/ml, added to a 96-well cell culture plate at 100 μl/well, and cultured overnight for later use. The antibody to be tested was diluted to 1000 nM with 1640 medium, HGF was diluted to 800 ng/mL, and Gefitinib was diluted to 8 μM. According to the experimental requirements, the diluted antibody at 50 μl/well, HGF at 25 μl/well, and Gefitinib at 25 μl/well were added to the 96-well plate with HCC827 cells, and supplemented with 1640 medium to reach a total volume of 200 μl/well. After culturing for 3 days at 37° C. and 5% carbon dioxide, 100 μl of the medium was removed, and then Cell titer glo (purchased from Promega) was added at 100 μl/well, and the chemiluminescent signal was collected with an microplate reader.

[4] = tested on: monkey c-MET protein; test: ForteBio affinity assay, monkey c-Met; format: binding
Protocol: (§1) After the antibodies were prepared, the ForteBio affinity assay was performed according to the reported method (Estep, P et al., Determination of antibody-antigen affinity and epitope binding based on high-throughput methods. MAbs, 2013.5(2): p. 270-8).

[5] = molecular target: human c-MET protein (Homo sapiens, UniProt P08581); test: ForteBio affinity assay, human c-Met; format: binding
Chain of human c-MET protein (P08581 25-1390): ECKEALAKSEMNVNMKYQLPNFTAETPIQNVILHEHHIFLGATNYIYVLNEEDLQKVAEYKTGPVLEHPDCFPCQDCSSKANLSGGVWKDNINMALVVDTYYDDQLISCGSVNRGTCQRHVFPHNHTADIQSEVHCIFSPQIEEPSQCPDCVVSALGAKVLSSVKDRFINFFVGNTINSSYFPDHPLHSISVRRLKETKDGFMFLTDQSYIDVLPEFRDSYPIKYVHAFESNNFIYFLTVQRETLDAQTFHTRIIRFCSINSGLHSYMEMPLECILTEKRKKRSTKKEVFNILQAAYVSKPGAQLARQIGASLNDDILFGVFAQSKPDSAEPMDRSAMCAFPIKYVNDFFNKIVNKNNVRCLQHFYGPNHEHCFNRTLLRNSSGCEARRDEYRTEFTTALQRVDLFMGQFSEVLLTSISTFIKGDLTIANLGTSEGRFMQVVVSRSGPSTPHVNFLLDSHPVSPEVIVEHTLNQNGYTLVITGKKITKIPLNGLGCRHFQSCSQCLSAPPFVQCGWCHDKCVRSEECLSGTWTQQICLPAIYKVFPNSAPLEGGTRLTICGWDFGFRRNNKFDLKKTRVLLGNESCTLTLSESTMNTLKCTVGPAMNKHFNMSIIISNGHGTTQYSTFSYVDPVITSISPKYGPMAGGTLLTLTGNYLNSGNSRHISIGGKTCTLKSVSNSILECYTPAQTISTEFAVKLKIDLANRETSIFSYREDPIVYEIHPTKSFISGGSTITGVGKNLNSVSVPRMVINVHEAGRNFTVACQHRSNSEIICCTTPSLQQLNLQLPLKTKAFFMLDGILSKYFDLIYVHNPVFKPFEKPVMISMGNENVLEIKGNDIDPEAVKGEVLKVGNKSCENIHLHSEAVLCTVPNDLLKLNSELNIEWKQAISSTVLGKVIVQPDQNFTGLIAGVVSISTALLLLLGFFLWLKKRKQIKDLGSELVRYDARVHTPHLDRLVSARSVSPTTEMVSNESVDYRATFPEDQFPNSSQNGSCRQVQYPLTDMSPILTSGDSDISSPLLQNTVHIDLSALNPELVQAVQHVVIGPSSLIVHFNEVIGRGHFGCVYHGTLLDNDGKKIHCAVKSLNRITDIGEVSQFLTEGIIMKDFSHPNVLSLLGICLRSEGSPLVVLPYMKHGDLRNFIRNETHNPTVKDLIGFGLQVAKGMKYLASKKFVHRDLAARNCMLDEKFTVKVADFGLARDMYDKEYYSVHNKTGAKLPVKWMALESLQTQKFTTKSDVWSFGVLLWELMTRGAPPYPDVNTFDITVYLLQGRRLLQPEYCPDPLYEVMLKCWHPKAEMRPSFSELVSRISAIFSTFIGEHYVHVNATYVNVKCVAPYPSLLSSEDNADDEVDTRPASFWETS
Protocol: as §1

Koff [5] [s⁻¹]	Kon [5] [M⁻¹ s⁻¹]	Molecule	ADCC effect [1]	tumor (volume) inhibition rate (TGI) [2] [%]	restoring the proliferation inhibitory effect of Gefitinib on HCC827 cells by blocking HGF-c-MET signaling [3]	Koff [4] [s⁻¹]	Kon [4] [M⁻¹ s⁻¹]
		Amivantamab analog Afu: control bispecific antibody obtained from the afucosylation cell line with gene knockout (antibody, chains of the INN, looked up, V domains shown, afucosylated, control bispecific antibody obtained from the afucosylation cell line with gene knockout) VH: QVQLVESGGGVVQPGRSLRLSCAASGFTFSTYGMHWVRQAPGKGLEWVAVIWDDGSYKYYGDSVKGRFTISRDNSKNTLYLQMNSLRAEDTAVYYCARDGITMVRGVMKDYFDYWGQGTLVTVSS VL: AIQLTQSPSSLSASVGDRVTITCRASQDISSALVWYQQKPGKAPKLLIYDASSLESGVPSRFSGSESGTDFTLTISSLQPEDFATYYCQQFNSYPLTFGGGTKVEIK VH2: QVQLVQSGAEVKKPGASVKVSCETSGYTFTSYGISWVRQAPGHGLEWMGWISAYNGYTNYAQKLQGRVTMTTDTSTSTAYMELRSLRSDDTAVYYCARDLRGTNYFDYWGQGTLVTVSS VL2: DIQMTQSPSSVSASVGDRVTITCRASQGISNWLAWFQHKPGKAPKLLIYAASSLLSGVPSRFSGSGSGTDFTLTISSLQPEDFATYYCQQANSFPITFGQGTRLEIK	stronger ADCC effect than the wild-type antibody containing fucose	74.5			
6.71e-06	229000	136: anti-c-MET antibody from yeast display screening; VH SEQ ID NO: 9, VL SEQ ID NO: 11 (antibody, V domains shown) VH: EVQLQESGPGLVKPSETLSLTCTVSGGSVTSVNYYWKWIRQPPGKGLEWIGYISYSGNTNYNPSLKSRVTISVDTSKNQFSLKLSSVTAADTAVYYCVRAPYYYMDVWSKGTTVTVSS VL: DIVMTQSPSSVSASVGDRVTITCRASQGISSWLAWYQQKPGKAPKLLIYAVSSLQSGVPSRFSGSGSGTDFTLTISSLQPEDFATYFCQQANSFPLTFGGGTKVEIK			could restore the proliferation inhibitory effect of Gefitinib on HCC827 cells	0.000426	369000
0.000369	220000	187: anti-c-MET antibody from yeast display screening; VH SEQ ID NO: 13, VL SEQ ID NO: 15 (antibody, V domains shown) VH: ELQLQESGPGLVKPSETLSLTCTVSGGSISSSSYYWGWIRQSPGKGLEWIGSRYYSGNTYYNPSLKSRVTMSVDTSKNQFSLKLRSVTAADTAVYYCARQVYDYWRDWGQGALVTVSS VL: DIVMTQSPSSVSASVGDRVTITCRASQGISSWLAWYQQKPGKAPNLLIYAASNLPSGVPSRFSGSGSGTVFTLTISSLQPEDFATYYCQQSNSFPLTFGGGTKVEIK			could restore the proliferation inhibitory effect of Gefitinib on HCC827 cells	0.000947	324000
